Results reported in patent US20110142840A1 (ONCOMED PHARMACEUTICALS, published 2011).

Columns and labels:
[1] = target: T1, human MET Receptor on cells (human, UniProt P08581 25-1390); assay: cell-based or functional assay
[2] = target: T2, recombinant human MET PSI-IPT domains (human, UniProt P08581 516-932, limits assumed); assay: plate binding assay, 384-well plates coated with recombinant domains
T2 construct: domain: PSI-IPT; also called PSI-IST (as printed once)

[3] = target: T3, recombinant human MET extracellular domain (MET ECD) (human, UniProt P08581 25-932); assay: BIAcore 2000; MET ECD amine-coupled on CM5 chip, antibody injected at 100-1 nM, global fit
T3 construct: extracellular domain; also called full-length MET-ECD molecule
T3 sequence (P08581 25-932): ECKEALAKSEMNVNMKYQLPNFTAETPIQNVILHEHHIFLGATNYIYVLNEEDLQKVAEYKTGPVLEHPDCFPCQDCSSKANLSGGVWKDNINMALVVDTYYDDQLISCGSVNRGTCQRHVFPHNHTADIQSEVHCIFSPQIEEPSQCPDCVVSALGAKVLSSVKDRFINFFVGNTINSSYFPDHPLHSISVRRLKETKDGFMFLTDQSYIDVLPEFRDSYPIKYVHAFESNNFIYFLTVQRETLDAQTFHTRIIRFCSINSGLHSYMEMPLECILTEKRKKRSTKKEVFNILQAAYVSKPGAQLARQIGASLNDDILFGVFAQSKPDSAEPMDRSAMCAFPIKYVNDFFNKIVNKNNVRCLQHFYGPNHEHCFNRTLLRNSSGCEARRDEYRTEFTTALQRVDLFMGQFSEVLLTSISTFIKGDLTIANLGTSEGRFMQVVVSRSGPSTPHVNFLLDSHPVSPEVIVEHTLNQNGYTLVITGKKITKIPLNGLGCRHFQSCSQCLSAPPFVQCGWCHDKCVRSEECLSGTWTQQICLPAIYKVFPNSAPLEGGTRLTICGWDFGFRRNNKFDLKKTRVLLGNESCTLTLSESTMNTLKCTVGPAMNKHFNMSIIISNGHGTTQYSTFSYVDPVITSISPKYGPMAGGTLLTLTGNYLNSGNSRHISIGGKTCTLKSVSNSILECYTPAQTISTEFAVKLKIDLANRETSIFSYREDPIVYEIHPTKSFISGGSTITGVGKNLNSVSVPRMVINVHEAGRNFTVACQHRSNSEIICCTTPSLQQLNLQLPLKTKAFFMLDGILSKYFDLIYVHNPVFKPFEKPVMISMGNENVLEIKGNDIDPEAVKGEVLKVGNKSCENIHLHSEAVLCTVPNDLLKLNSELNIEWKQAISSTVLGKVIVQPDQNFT
Method: (§1) Fab and IgG affinities were determined using a BIAcore 2000 instrument. Briefly, MET ECD was immobilized on a CM5 chip using standard amine based chemistry (NHS/EDC). For each Fab and IgG, different concentrations (100-1 nM) were injected over the MET ECD surface and kinetic data were collected over time. The data was fit using the simultaneous global fit equation to yield affinity constants (KD) for each Fab and IgG.

[4] = target: T3, recombinant human MET extracellular …; assay: BIAcore 2000; MET ECD amine-coupled on CM5 chip, antibody injected at 100-1 nM, global fit; Dimer, not IgG
Method: as §1

[5] = target: T4, recombinant human MET/Fc chimeric protein (R&D Systems) (human, UniProt P08581 25-932); assay: HGF/MET blocking ELISA, experiment of Example 3; unit from the legend of FIG. 3; FIG. 3A experiment, antibody alone
T4 construct: extracellular domain; Bought reagent; also called MET Receptor extracellular domain; not shown: Fc part (detected with anti-human Fc) and any linker of the bought chimera
T4 sequence (P08581 25-932, change not shown): as the sequence (P08581 25-932) above

[6] = target: T4, recombinant human MET/Fc chimeric …; assay: HGF/MET blocking ELISA (Dm=IC50): antibody preincubated with MET/Fc, added to HGF-coated wells; unit from the legend of FIG. 2; FIG. 2A, B experiment
Method: (§2) After washing the wells once with 0.2% PBS/T, they were blocked with 5% PBS/milk for one hour. […] Washing was repeated as described above. Fifty microliters of substrate were added per well until a yellow color developed. The reaction was then stopped with 50 μL of 1 M H₂SO₄ and the absorbance at 450 nm determined with a standard plate reader.

[7] = target: T4, recombinant human MET/Fc chimeric …; assay: HGF/MET blocking ELISA: antibody preincubated with MET/Fc, added to HGF-coated wells; unit from the legend of FIG. 1
Method: as §2

[8] = target: T5, recombinant human MET SEMA domain (human, UniProt P08581 27-515); assay: plate binding assay, 384-well plates coated with recombinant domains
T5 construct: domain: SEMA; also called SEMA domain of MET-ECD
T5 sequence (P08581 27-515): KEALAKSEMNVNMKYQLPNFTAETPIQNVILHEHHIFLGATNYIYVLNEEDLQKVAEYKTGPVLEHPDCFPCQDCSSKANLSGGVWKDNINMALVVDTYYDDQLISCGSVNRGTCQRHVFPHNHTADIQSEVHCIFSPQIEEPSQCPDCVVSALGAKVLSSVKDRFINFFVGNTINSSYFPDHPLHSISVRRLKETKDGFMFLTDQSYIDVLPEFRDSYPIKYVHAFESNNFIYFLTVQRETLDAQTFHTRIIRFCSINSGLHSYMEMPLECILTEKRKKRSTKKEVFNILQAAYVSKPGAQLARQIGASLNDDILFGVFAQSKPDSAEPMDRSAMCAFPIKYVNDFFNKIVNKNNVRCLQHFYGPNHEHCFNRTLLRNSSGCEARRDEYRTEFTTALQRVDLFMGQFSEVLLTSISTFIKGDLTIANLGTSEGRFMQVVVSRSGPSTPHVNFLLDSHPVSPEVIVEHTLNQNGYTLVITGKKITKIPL

[9] = target: T1, human MET Receptor on cells; assay: FACS on GTL-16 cells; AF647-R28 fixed at 360 nM, against AF647-R28 without R13

T1 sequence (P08581 25-1390): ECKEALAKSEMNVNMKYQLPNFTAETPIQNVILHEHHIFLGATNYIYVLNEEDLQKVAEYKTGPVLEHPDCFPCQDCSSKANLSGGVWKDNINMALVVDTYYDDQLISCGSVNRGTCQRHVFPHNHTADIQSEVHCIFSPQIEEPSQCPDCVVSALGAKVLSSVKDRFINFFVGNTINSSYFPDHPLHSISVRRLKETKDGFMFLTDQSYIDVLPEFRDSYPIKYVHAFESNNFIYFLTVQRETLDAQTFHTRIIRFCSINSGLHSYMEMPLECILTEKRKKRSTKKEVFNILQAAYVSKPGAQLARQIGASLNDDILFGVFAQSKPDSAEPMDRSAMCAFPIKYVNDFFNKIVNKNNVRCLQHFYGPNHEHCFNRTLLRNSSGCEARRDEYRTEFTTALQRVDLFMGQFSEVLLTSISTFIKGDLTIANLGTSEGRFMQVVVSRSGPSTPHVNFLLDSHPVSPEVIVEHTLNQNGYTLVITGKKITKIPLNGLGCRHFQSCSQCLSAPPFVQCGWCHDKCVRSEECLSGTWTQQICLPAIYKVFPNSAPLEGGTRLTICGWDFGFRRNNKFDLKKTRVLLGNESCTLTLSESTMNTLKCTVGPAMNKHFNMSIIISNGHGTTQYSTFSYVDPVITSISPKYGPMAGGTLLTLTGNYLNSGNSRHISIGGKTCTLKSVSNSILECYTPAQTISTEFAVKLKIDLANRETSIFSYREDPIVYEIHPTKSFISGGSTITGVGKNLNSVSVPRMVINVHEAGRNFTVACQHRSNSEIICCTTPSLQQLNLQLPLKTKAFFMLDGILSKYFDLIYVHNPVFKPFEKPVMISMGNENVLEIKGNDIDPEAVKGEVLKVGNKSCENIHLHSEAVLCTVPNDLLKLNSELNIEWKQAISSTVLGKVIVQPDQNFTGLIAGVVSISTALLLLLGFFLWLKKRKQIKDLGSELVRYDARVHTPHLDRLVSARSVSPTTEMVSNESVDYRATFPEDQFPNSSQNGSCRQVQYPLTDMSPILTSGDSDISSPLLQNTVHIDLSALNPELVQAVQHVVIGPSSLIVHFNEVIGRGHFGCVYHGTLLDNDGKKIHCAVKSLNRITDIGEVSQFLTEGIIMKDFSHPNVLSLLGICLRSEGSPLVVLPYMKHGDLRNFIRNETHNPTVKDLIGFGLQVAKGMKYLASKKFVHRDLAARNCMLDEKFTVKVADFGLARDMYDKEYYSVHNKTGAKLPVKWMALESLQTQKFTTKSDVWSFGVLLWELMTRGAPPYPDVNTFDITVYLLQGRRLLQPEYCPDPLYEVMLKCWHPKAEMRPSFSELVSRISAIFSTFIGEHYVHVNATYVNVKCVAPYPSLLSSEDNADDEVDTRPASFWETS
T2 sequence (P08581 516-932 limits assumed): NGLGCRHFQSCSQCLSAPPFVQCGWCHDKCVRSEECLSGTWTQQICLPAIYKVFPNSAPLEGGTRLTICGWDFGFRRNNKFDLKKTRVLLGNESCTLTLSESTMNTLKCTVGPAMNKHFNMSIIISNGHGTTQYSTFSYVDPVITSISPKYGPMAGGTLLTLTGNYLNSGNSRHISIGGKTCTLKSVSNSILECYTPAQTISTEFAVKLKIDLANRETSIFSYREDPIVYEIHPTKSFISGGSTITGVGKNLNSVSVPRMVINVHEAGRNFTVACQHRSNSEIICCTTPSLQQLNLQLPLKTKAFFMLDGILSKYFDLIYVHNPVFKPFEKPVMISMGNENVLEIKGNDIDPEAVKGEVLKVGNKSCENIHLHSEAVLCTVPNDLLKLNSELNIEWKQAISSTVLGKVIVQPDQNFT

B1: 13-MET human IgG1 antibody (antibody, V domains shown)
VH: QVQLKESGPALVKPTQTLTLTCTFSGFSLSTSGMVVSWIRQPPGKALEWLAFISWDDDKYYSTSLKTRLTISKDTSKNQVVLTMTNMDPVDTATYYCAREPGRYGGYYFDYWGQGTLVTVSS
VL: DIQMTQSPSSLSASVGDRVTITCRASQTISHYLAWYQQKPGKAPKLLIYAASILQSGVPSRFSGSGSGTDFTLTISSLQPEDFAVYYCQQYSGFPVTFGQGTKVEIKR
notes: Fab variable regions combined with human constant regions to give a full human IgG1; ATCC deposit PTA-9148; also called 13-MET IgG; MET-13 IgG
In the case of B1, the “EC50 of antibody-dependent cellular cytotoxicity (ADCC) on GTL-16 cells” value [1] is reported as 479 nM, the binding result [2] is reported as “no binding” and the Kd [3] is reported as 0.9 nM.

B2: 9-MET (divalent dimer of two 13-MET Fabs linked via a helix-loop-helix motif) (other)
VH: QVQLKESGPALVKPTQTLTLTCTFSGFSLSTSGMVVSWIRQPPGKALEWLAFISWDDDKYYSTSLKTRLTISKDTSKNQVVLTMTNMDPVDTATYYCAREPGRYGGYYFDYWGQGTLVTVSS
VL: DIQMTQSPSSLSASVGDRVTITCRASQTISHYLAWYQQKPGKAPKLLIYAASILQSGVPSRFSGSGSGTDFTLTISSLQPEDFAVYYCQQYSGFPVTFGQGTKVEIKRT
notes: also called 9d; dimeric Fab-dHLX of Fab 13
B2 was tested, and the Kd [4] was 0.56 nM, the IC50 [5] was 8.88 nM and the IC50 [6] was 5.08 nM.

B3: 13-MET monovalent Fab (Fab, V domains shown)
VH: QVQLKESGPALVKPTQTLTLTCTFSGFSLSTSGMVVSWIRQPPGKALEWLAFISWDDDKYYSTSLKTRLTISKDTSKNQVVLTMTNMDPVDTATYYCAREPGRYGGYYFDYWGQGTLVTVSS
VL: DIQMTQSPSSLSASVGDRVTITCRASQTISHYLAWYQQKPGKAPKLLIYAASILQSGVPSRFSGSGSGTDFTLTISSLQPEDFAVYYCQQYSGFPVTFGQGTKVEIKR
notes: Monovalent human Fab from the Morphosys HuCAL GOLD Fab library; the Fab constant parts are not; also called Fab-13; R13
For B3, the IC50 [7] was 12.4 nM.

B4: 28-MET human IgG1 antibody (antibody, V domains shown)
VH: QVQLQESGPGLVKPGETLSLTCTVSGGSISGYYWSWIRQAPGKGLEWIGEIYYAGSTLYNPSLKGRVTISVDTSKNQFSLKLSSVTAEDTAVYYCARHYGLDWFGDTGMDVWGQGTLVTVSS
VL: DIELTQPPSVSVAPGQSITISCSGDNLGDKYVHWYQQKPGQAPVLVIYDDNERPSGIPERFSGSNSGNTATLTISGTQAEDEADYYCSAYGSHSGTVFGGGTKLTVLG
notes: Fab variable regions combined with human constant regions to give a full human IgG1; ATCC deposit PTA-9149; also called 28-MET IgG; MET-28 IgG
For B4, the “EC50 of antibody-dependent cellular cytotoxicity (ADCC) on GTL-16 cells” value [1] was 3770 nM, the binding result [8] was “no binding” and the binding result [2] was “no binding”. For the same binder, the “fold increase of ΔMFI with 20 nM unlabeled R13” value [9] was 2.6 fold and the Kd [3] was 47.9 nM.

B5: 28-MET monovalent Fab (Fab, V domains shown)
VH: QVQLQESGPGLVKPGETLSLTCTVSGGSISGYYWSWIRQAPGKGLEWIGEIYYAGSTLYNPSLKGRVTISVDTSKNQFSLKLSSVTAEDTAVYYCARHYGLDWFGDTGMDVWGQGTLVTVSS
VL: DIELTQPPSVSVAPGQSITISCSGDNLGDKYVHWYQQKPGQAPVLVIYDDNERPSGIPERFSGSNSGNTATLTISGTQAEDEADYYCSAYGSHSGTVFGGGTKLTVLG
notes: Monovalent human Fab from the Morphosys HuCAL GOLD Fab library; the Fab constant parts are not; also called Fab-28; R28
B5 showed a Kd [3] of 49 nM and an IC50 [7] of 36.1 nM.

B6: 19-MET (divalent dimer of two 28-MET Fabs linked via a helix-loop-helix motif) (other)
VH: QVQLQESGPGLVKPGETLSLTCTVSGGSISGYYWSWIRQAPGKGLEWIGEIYYAGSTLYNPSLKGRVTISVDTSKNQFSLKLSSVTAEDTAVYYCARHYGLDWFGDTGMDVWGQGTLVTVSS
VL: DIELTQPPSVSVAPGQSITISCSGDNLGDKYVHWYQQKPGQAPVLVIYDDNERPSGIPERFSGSNSGNTATLTISGTQAEDEADYYCSAYGSHSGTVFGGGTKLTVLG
notes: also called 19d; dimeric Fab-dHLX of Fab 28
For B6, the Kd [3] was 8.7 nM, the IC50 [5] was 106 nM and the IC50 [6] was 44.3 nM.
